According to the supplement of paper PMC10567573:

B1: FAM98B (parent)
chain: QLDKNSEVYQEVQAMFDTLGIPKS

Variants of: B1
Experiment: protein stability index of a GFP-peptide fusion (GPS, HEK-293T) (PSI 1-6); higher = more stable
Settings: c terminus: a fixed tail appended
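Note: lentivirally expressed fusions sorted by FACS into six bins by GFP to DsRed ratio, PSI derived from sequencing read proportions per bin multiplied by bin number.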

| Variant | protein stability index |
| --- | --- |
| QLDKNSEVYQSVQAMFDTLGIPKS [E11S] | 2.62 |
| QLDKNSEVYQLVQAMFDTLGIPKS [E11L] | 2.28 |
| QLDKNSEVYQTVQAMFDTLGIPKS [E11T] | 3.13 |
| QLDKNSEVYQQVQAMFDTLGIPKS [E11Q] | 2.3 |
| QLDKNSEVYQGVQAMFDTLGIPKS [E11G] | 2.78 |
| QLDKNSEVYQCVQAMFDTLGIPKS [E11C] | 2.48 |
| QLDKNSEVYQRVQAMFDTLGIPKS [E11R] | 3.38 |
| QLDKNSEVYQIVQAMFDTLGIPKS [E11I] | 1.67 |
| QLDKNSEVYQAVQAMFDTLGIPKS [E11A] | 2.86 |
| QLDKNSEVYQKVQAMFDTLGIPKS [E11K] | 1.69 |
| QLDKNSEVYQPVQAMFDTLGIPKS [E11P] | 2.88 |
| QLDKNSEVYQFVQAMFDTLGIPKS [E11F] | 2.07 |
| QLDKNSEVYQYVQAMFDTLGIPKS [E11Y] | 2.7 |
| QLDKNSEVYQMVQAMFDTLGIPKS [E11M] | 2.36 |
| QLDKNSEVYQDVQAMFDTLGIPKS [E11D] | 2.86 |
| QLDKNSEVYQVVQAMFDTLGIPKS [E11V] | 2.56 |
| QLDKNSEVYQHVQAMFDTLGIPKS [E11H] | 3.46 |
| QLDKNSEVYQWVQAMFDTLGIPKS [E11W] | 1.27 |
| QLDKNSEVYQNVQAMFDTLGIPKS [E11N] | 2.64 |
| QLDKNSEVYKEVQAMFDTLGIPKS [Q10K] | 2.53 |
| QLDKNSEVYFEVQAMFDTLGIPKS [Q10F] | 2 |
| QLDKNSEVYWEVQAMFDTLGIPKS [Q10W] | 2.3 |
| QLDKNSEVYVEVQAMFDTLGIPKS [Q10V] | 2.08 |
| QLDKNSEVYREVQAMFDTLGIPKS [Q10R] | 2.29 |

| Variant | protein stability index |
| --- | --- |
| QLDKNSEVYIEVQAMFDTLGIPKS [Q10I] | 1.39 |
| QLDKNSEVYNEVQAMFDTLGIPKS [Q10N] | 3.07 |
| QLDKNSEVYMEVQAMFDTLGIPKS [Q10M] | 2.73 |
| QLDKNSEVYLEVQAMFDTLGIPKS [Q10L] | 2.18 |
| QLDKNSEVYAEVQAMFDTLGIPKS [Q10A] | 3.01 |
| QLDKNSEVYPEVQAMFDTLGIPKS [Q10P] | 2.73 |
| QLDKNSEVYEEVQAMFDTLGIPKS [Q10E] | 3.57 |
| QLDKNSEVYTEVQAMFDTLGIPKS [Q10T] | 3.1 |
| QLDKNSEVYDEVQAMFDTLGIPKS [Q10D] | 3.75 |
| QLDKNSEVYSEVQAMFDTLGIPKS [Q10S] | 3.58 |
| QLDKNSEVYGEVQAMFDTLGIPKS [Q10G] | 3.01 |
| QLDKNSEVYHEVQAMFDTLGIPKS [Q10H] | 2.75 |
| QLDKNSEVYYEVQAMFDTLGIPKS [Q10Y] | 2.49 |
| QLDKNSEVYCEVQAMFDTLGIPKS [Q10C] | 2.63 |
| QLDKNSEVYQEVQAMEDTLGIPKS [F16E] | 4.36 |
| QLDKNSEVYQEVQAMNDTLGIPKS [F16N] | 3.77 |
| QLDKNSEVYQEVQAMQDTLGIPKS [F16Q] | 4.11 |
| QLDKNSEVYQEVQAMIDTLGIPKS [F16I] | 2.79 |
| QLDKNSEVYQEVQAMMDTLGIPKS [F16M] | 3.3 |
| QLDKNSEVYQEVQAMWDTLGIPKS [F16W] | 2.1 |
| QLDKNSEVYQEVQAMPDTLGIPKS [F16P] | 4.42 |
| QLDKNSEVYQEVQAMSDTLGIPKS [F16S] | 3.42 |
| QLDKNSEVYQEVQAMVDTLGIPKS [F16V] | 3.94 |
| QLDKNSEVYQEVQAMGDTLGIPKS [F16G] | 3.78 |

| Variant | protein stability index |
| --- | --- |
| QLDKNSEVYQEVQAMRDTLGIPKS [F16R] | 2.92 |
| QLDKNSEVYQEVQAMHDTLGIPKS [F16H] | 2.58 |
| QLDKNSEVYQEVQAMCDTLGIPKS [F16C] | 3.38 |
| QLDKNSEVYQEVQAMKDTLGIPKS [F16K] | 4.07 |
| QLDKNSEVYQEVQAMADTLGIPKS [F16A] | 3.82 |
| QLDKNSEVYQEVQAMTDTLGIPKS [F16T] | 3.78 |
| QLDKNSEVYQEVQAMYDTLGIPKS [F16Y] | 3.57 |
| QLDKNSEVYQEVQAMLDTLGIPKS [F16L] | 3.12 |
| QLDKNSEVYQEVQAAFDTLGIPKS [M15A] | 2.88 |
| QLDKNSEVYQEVQAYFDTLGIPKS [M15Y] | 2.55 |
| QLDKNSEVYQEVQAFFDTLGIPKS [M15F] | 3.5 |
| QLDKNSEVYQEVQAIFDTLGIPKS [M15I] | 3.24 |
| QLDKNSEVYQEVQAKFDTLGIPKS [M15K] | 3.32 |
| QLDKNSEVYQEVQAHFDTLGIPKS [M15H] | 3.08 |
| QLDKNSEVYQEVQAQFDTLGIPKS [M15Q] | 3.56 |
| QLDKNSEVYQEVQAGFDTLGIPKS [M15G] | 3.69 |
| QLDKNSEVYQEVQATFDTLGIPKS [M15T] | 3.25 |
| QLDKNSEVYQEVQADFDTLGIPKS [M15D] | 3.68 |
| QLDKNSEVYQEVQAPFDTLGIPKS [M15P] | 3.27 |
| QLDKNSEVYQEVQARFDTLGIPKS [M15R] | 3.34 |
| QLDKNSEVYQEVQACFDTLGIPKS [M15C] | 2.73 |
| QLDKNSEVYQEVQASFDTLGIPKS [M15S] | 3.22 |
| QLDKNSEVYQEVQAVFDTLGIPKS [M15V] | 2.91 |
| QLDKNSEVYQEVQAEFDTLGIPKS [M15E] | 4.28 |

| Variant | protein stability index |
| --- | --- |
| QLDKNSEVYQEVQANFDTLGIPKS [M15N] | 3.1 |
| QLDKNSEVYQEVQAWFDTLGIPKS [M15W] | 3.55 |
| QLDKNSEVYQEVQALFDTLGIPKS [M15L] | 2.94 |
| QLDKNSEVFQEVQAMFDTLGIPKS [Y9F] | 2.72 |
| QLDKNSEVRQEVQAMFDTLGIPKS [Y9R] | 3.12 |
| QLDKNSEVPQEVQAMFDTLGIPKS [Y9P] | 3.57 |
| QLDKNSEVIQEVQAMFDTLGIPKS [Y9I] | 3.67 |
| QLDKNSEVQQEVQAMFDTLGIPKS [Y9Q] | 3.98 |
| QLDKNSEVNQEVQAMFDTLGIPKS [Y9N] | 3.52 |
| QLDKNSEVAQEVQAMFDTLGIPKS [Y9A] | 4.12 |
| QLDKNSEVKQEVQAMFDTLGIPKS [Y9K] | 3.72 |
| QLDKNSEVSQEVQAMFDTLGIPKS [Y9S] | 3.78 |
| QLDKNSEVLQEVQAMFDTLGIPKS [Y9L] | 3.2 |
| QLDKNSEVVQEVQAMFDTLGIPKS [Y9V] | 3.27 |
| QLDKNSEVMQEVQAMFDTLGIPKS [Y9M] | 3.66 |
| QLDKNSEVGQEVQAMFDTLGIPKS [Y9G] | 3.5 |
| QLDKNSEVCQEVQAMFDTLGIPKS [Y9C] | 3.58 |
| QLDKNSEVWQEVQAMFDTLGIPKS [Y9W] | 3.31 |
| QLDKNSEVHQEVQAMFDTLGIPKS [Y9H] | 3.55 |
| QLDKNSEVEQEVQAMFDTLGIPKS [Y9E] | 4.4 |
| QLDKNSEVTQEVQAMFDTLGIPKS [Y9T] | 4.39 |
| QLDKNSEVDQEVQAMFDTLGIPKS [Y9D] | 4.2 |
